This is an account of results in patent US20180105597A1.

As a reminder, the EC50 is the concentration that produces a half-maximal response. Read a high EC50 as a less potent agent.

The target in assay [1] is human C1q (human) (UniProt P02745). Nature of the assay: cell-based or functional assay.
For assay [2] the target is unchanged. Nature of the assay: solid phase C1q binding ELISA, antibody coated in a titration, C1q added. For orientation: An ELISA detects its analyte on a solid surface through an enzyme-linked reagent.
The target in the next assay is FcγR1 (human) (UniProt P12314). Nature of the assay: solid phase binding assay (Meso Scale), receptor coated, antibody titrated.
In the next assay the target is FcγR2a(H) (human) (UniProt P12318). The assay is described as above.
For the next assay, the target named is FcγR3a (V) (human) (UniProt P08637). The assay is described as above.
Chain of FcγR3a (V) (human) (P08637 17-208 F176V): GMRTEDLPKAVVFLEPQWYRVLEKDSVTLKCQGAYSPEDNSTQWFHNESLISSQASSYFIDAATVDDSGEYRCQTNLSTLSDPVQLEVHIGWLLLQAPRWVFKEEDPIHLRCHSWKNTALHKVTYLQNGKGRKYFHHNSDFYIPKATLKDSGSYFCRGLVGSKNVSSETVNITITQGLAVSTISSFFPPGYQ

Chain of human C1q (human) (P02745 23-245 limits assumed, chain 1 of 3): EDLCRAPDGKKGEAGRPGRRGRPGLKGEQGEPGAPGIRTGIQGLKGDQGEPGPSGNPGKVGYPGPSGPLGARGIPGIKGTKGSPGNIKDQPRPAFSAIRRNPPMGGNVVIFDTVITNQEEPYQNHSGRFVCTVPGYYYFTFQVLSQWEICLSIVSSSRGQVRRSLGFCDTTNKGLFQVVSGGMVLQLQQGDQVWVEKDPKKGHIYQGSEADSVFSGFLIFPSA
Chain of human C1q (human) (P02746 28-253 limits assumed, chain 2 of 3, further chain): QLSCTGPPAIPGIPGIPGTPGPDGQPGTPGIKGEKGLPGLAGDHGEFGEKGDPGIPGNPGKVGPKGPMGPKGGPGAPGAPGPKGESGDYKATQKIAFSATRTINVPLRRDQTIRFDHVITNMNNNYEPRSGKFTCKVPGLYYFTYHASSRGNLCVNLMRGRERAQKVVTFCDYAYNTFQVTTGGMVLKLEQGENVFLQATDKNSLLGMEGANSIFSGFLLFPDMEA
Chain of human C1q (human) (P02747 29-245 limits assumed, chain 3 of 3, further chain): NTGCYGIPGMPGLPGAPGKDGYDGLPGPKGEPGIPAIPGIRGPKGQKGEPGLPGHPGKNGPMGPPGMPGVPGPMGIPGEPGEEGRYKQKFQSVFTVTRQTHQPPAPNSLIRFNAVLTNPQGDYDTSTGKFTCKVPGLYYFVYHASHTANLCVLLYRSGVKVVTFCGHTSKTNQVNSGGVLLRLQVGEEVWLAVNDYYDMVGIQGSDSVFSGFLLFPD
Chain of FcγR2a(H) (human) (P12318 36-218): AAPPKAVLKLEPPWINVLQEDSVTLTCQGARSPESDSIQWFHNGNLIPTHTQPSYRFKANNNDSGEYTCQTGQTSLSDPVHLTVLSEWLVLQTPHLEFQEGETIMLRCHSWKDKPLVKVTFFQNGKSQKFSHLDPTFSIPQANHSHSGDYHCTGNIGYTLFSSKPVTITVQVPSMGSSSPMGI
Chain of FcγR1 (human) (P12314 16-288): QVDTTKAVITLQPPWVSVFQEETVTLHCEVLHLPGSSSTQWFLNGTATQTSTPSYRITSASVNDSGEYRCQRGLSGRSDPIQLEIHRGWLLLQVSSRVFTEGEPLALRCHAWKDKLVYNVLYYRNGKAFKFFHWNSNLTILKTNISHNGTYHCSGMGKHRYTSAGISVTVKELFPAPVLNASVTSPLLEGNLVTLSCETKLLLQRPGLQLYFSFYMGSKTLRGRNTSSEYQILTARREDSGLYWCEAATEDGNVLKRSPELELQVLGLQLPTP

Regarding LY3022859 (antibody), the CDC activity EC50 (nM), BxPC3 target cells, human complement with human C1q (human) [1] was over 200 nM. The CDC activity EC50 (nM), HEK293 target cells, human complement in the assay with human C1q (human) [1] was over 200 nM. For the same substance, the CDC activity EC50 (nM), MDA-MB-231 target cells, human complement in the assay with human C1q (human) [1] was over 200 nM. The CDC activity EC50 (nM), TGFRβII-HEK target cells, human complement in the assay with human C1q (human) [1] is over 200 nM. Also, the EC50 turned out to be 19 nM in the assay with human C1q (human) [2], 0.58 nM with FcγR1 (human), 48 nM with FcγR2a(H) (human) and 5.7 nM with FcγR3a (V) (human).
